Results on 1 protein are retold here after article PMC4234702 (Cellular and molecular life sciences : CMLS, 2014).

In general, stoichiometry N refers to a count of units in the complex or per binding partner.

The data set concerns the molecule itself. Briefly: crystal structure.

B1: cell-free expressed Δ7 DgkA (thermostabilized mutant of diacylglycerol kinase) (enzyme, Escherichia coli)
chain: ANNTTGFTRIIKAAGYSWKGLRAAWINEAAFRQEGVAVLLCVVIAAWLDVDAVTRVLLISSVMLVMIVELLNSAIEAVVDRIGSEYHELSGRAKDLGSAAVLIAIIDAVITWAILLWSHFG
Take B1: the “stoichiometry N” value amounted to 3.
